The text below walks through data of US20230357367A1 (GENERATE BIOMEDICINES, published 2023).

For assay [1], the target named is SARS-CoV-1 spike trimer (recombinant) (SARS-CoV-1, UniProt P59594 14-1195).
Assay [2] deals with T1, WIV1 Spike on pseudovirus (WIV1 (bat SARS-like coronavirus)). Put plainly: cell-based or functional assay.
Assay [3] has as its target T2, SARS-CoV-1 Spike on pseudovirus (SARS-CoV-1, UniProt P59594 14-1255). Put plainly: cell-based or functional assay.
Assay [4] addresses T1, WIV1 Spike on pseudovirus. The experiment in a line: cell-based or functional assay. This is another data set of the same source.
Assay [5] has as its target T2, SARS-CoV-1 Spike on pseudovirus. Put plainly: cell-based or functional assay. This is another data set of the same source.
For assay [6], the target named is T1, WIV1 Spike on pseudovirus. The experiment in a line: cell-based or functional assay. The source holds these as a separate data set.
Assay [7] has as its target T2, SARS-CoV-1 Spike on pseudovirus. The experiment in a line: cell-based or functional assay. The source holds these as a separate data set.

Read-outs that look alike come from different tables or passages of the source.

B1: AB-1 (antibody, V domains shown)
VH: EVQLVESGAEVKKPGESLKISCKGSGYTFTRYWIGWVRQMPGKGLEWMGIIYPGDSDVRYSPSFQGHVTISADKSISTAYLQWNSLKASDTAMYYCARLPQYCSKGVCYRWFDPWGQGTLVTVSS
VL: EIVLTQSPSSVSASVGDRVTITCRASQGISSWLAWYQQKPGKAPKLLIYAASSLQSGVPSRFSGSGSGTDFTLTISSLQPEDFATYYCQQGHSFPYTFGQGTNLEIK
Regarding B1, the 50% effective concentration (EC50) (as a rule, the concentration needed to bring the measured effect to its halfway point) in assay [1] came out at 0.065 mg/L. In addition, the “IC50, pseudovirus neutralization” value in assay [2] was determined as 0.069 mg/L; in assay [3] it was 0.04 mg/L; in assay [4], 0.0139 mg/L; in assay [5], 0.009 mg/L. Besides, the “% neutralization at 4.5 µg/ml, pseudovirus” value was determined as 101% in assay [6] and 99% in assay [7].
